# In the DeepSol protein solubility set:
# Assay: soluble on expression in E. coli; label from the status in PepcDB or PDB records
row,Sequence,soluble on expression in E. coli
1,MKVVAFNGSPRRDGNTSILIDKVLNELKKEGITTEHIHIAGGKLRGCTACYKCFETLNNKCIIECDIINNCIEKMIEADGIILGSPTYFTDVTAEMKALIDRAGFVAKANDDILKRKVGAAVVSVRRAGGVHVFDTLNHFFSINQMISVGSDYWNLGMGLDIGDVQKDAEGLHTMELLGQNMAWILKKINELEHHHHHH,not soluble
2,MGHHHHHHSHMTIEEFAAGPAQSGILVDREVVSLFLHFTVNPKPRVEFIDRPRCCLRGKECSINRFQQVESRWGYSGTSDRIRFSVNKRIFVVGFGLYGSIHGPTDYQVNIQIIHTDSNTVLGQNDTGFSCDGSASTFRVMFKEPVEVLPNVNYTACATLKGPDSHYGTKGLRKVTHESPTTGAKTCFTFCYAAGNNNGTSVEDGQIPEVIFYT,not soluble
3,MIQKGCTPIEEGSDSEPQAETVPEEADYEAVPVEAYGLAMLRGMGWKPGKGIGNTFSQVVKPRVNSIRPKGLGLGANRMEAQDLASVGSHHPPRPDGDRENDKEGQPQGLMHGRAVVVLSGPYRGLYGKVEGLDPDNVRAMVRLAVGNRIVTVSEYCLRPVSQQEFDSHTSKPGHVSQTSTEQQNRATGTASSLKAAQNQEDSKRRQKGSEKKRKHSPDRQDGPVPKTEKAAPRNKHWLHRDLRVRFIDKLHKSGRYYNTKMTIEDVLSPDTCVCRTDEGRVLEDVREDMLETLIPKGEGHRVMVVLGPHAGKVGLLRSRDRAQSHALVQLRRENQVVELHYNAICQYMGPGDSDED,soluble
4,VVIRVLFRPVSLIPVNNSSTPQSQGPISRRLALTALGFGVLAPNVLVACAGKVTKLAEKRPPPAPRLTFRPADSAADVVPIAPISVEVGDGWFQRVALTNSAGKVVAGAYSRDRTIYTITEPLGYDTTYTWSGSAVGHDGKAVPVAGKFTTVAPVKTINAGFQLADGQTVGIAAPVIIQFDSPISDKAAVERALTVTTDPPVEGGWAWLPDEAQGARVHWRPREYYPAGTTVDVDAKLYGLPFGDGAYGAQDMSLHFQIGRRQVVKAEVSSHRIQVVTDAGVIMDFPCSYGEADLARNVTRNGIHVVTEKYSDFYMSNPAAGYSHIHERWAVRISNNGEFIHANPMSAGAQGNSNVTNGCINLSTENAEQYYRSAVYGDPVEVTGSSIQLSYADGDIWDWAVDWDTWVSMSALPPPAAKPAATQIPVTAPVTPSDAPTPSGTPTTTNGPGG,not soluble
5,MVVGVAGYYGFRNAGDEAILEAIARELKARGHEVVALSGDPKRTREDHGLRAYHRLNPLALLRADLWLLGGGGLLQDATSALSLTYYLSVLRLARLFRKRVVVFNQSLGPLSPWGERRVRKALQGVPVILRDQDSLEYARRLGIPAALGADPALLLPPPPVPREEDLVLVIPRAGVREEALTTLYVAANHLVHEGKQVLVLLLQPGYDDEVAEVFRLHRIERTSDPRRLLYLAAQAGYVISMRLHGLILAAAAGTPFAALSYDPKVAAFAKETGAYYQELPGEPIKLYKAALYGRFPDWEKVARLKERARQSFDLALGEGVPIKGSGRG,soluble
6,MGSDKIHHHHHHAPFVFDQQSYRQDVQTLASDEFEGRGPLSQGETLTVEYLENAFKKMGLAPGFGDSYRQSVPMAKITADQNMQLKVGELVFNNGSDFTARTEQIQPSITLDNSEIVFVGYGINAPEYGWNDYAGIDVKGKTVILMVNDPGFATQDPEVFKGNAMTYYGRWTYKYEEAARQGAKAVFIIHETAPAAYGWNVVQNSNTNTKYTLVDKEKNRSHIGVMGWVQHEVAQKIFTAAGLDYDKLKLTAAKPGFKSRSLDLKANLEVKNDIELATSYNVAGLLPGKTRPDEWLVMHAHWDHLGKTVHEDQTRIYNGAVDNASGVAGVLQLARHFKDLSATQPPARSMLFSAFTAEETGLIGAQYFAENSPVPTKQLVAFLNIDGMNVGKGVDYILRYGEGVSELENYLDKAAKAQGRWVKADPRPQNGLMFRSDHFALAKQGVPGLMFMSLGDTDPDYIAHKYHQGADDYDPSWTLGGVEQDLALISDILEKLANNNDWPKWLEASDFKTRRAQDGR,not soluble
7,ANSKLTSDFDNPRWIGRHKHMFNFLDVNHNGKISLDEMVYKASDIVINNLGATPEQAKRHKDAVEAFFGGAGMKYGVETDWPAYIEGWKKLATDELEKYAKNEPTLIRIWGDALFDIVDKDQNGAITLDEWKAYTKAAGIIQSSEDCEETFRVCDIDESGQLDVDEMTRQHLGFWYTMDPACEKLYGGAVP,soluble
8,MSLEFALKAVTEHGPFTDIGKFDQDRWQLFHTDEDRSEAHDLADQHPEKVGEMAALWMSEAKKYHVLPLSDLGVMGILKMEFKPPVPPSRQYAYYPGTSTVPEHSAANTHGVSFKVLADVEFTADSQGILFAHGSRFGGHALYVKNGKLIYVYNFLGIPPEQRLVGDAPRSGKHVVGVEFIKERMGEYKESYGPARLYVDERIVAEAPIRTMTGHFAITGEGLCIGYDSGDGVSNDYRPKFAFSGGKINKVVFDVGADLYVDVETHLVAAMARDEGHHHHHH,soluble
9,MRLEVLCEDRLGLTRELLDILASKSIDLRGIEIDISGIIYLNCPDIDFDTFSELMAEIRRIPGVKDVRKIQFMPMERHNTELLSLVDNLPDPVFAIDLKGAVDMANMSALSLLGLHKQEVIGTQIGALLPSVRFSRWSEGVNARTRENLVIDGLDYILELMPVYIRDEAQNSTLASTLMTIRTSQHGTQIE,not soluble
10,MGSDKIHHHHHHMNRISVVILNWNGCEMLRSFLPSVLRYSEAEGVEVCVADNGSTDQSVEMLRREFPSVRRILLDGNHGFADGYNLALRQVEAEYVVLLNSDVEVTGQWLQPMAAYLDAHPEVAACQPKIRSWRQKEWFEYAGAAGGFIDRYGYPFCRGRVMGVVEADRGQYDTVLPIFWATGAAMFIRLADYREAGGLDGRFFAHMEEIDLCWRLRARGRGIVCIPQSVVYHVGGATLKKENPHKTFLNFRNNLVMLYKNLPDRELAGVMRVRCWLDYIAAATFALKGQPANAKAVVRARREFKLLRDSFRDARAENLRKTSSHFIPERIKSSILVQFYVKGRKFFSQLSDLKG,not soluble
11,MDILKQLQSSTNLTPNVLARLAIALSLLSKEPIESFDSDTNGLEFNRNTLTGEYDFVYKALIAQQLGRPITDDEYFPSLIKKHLDRGAKWLENEYKYAGNYEKLIKGLAHFELEMIR,not soluble
12,SPCDTNWRYYGDSCYGFFRHNLTWEESKQYCTDMNATLLKIDNRNIVEYIKARTHLIRWVGLSRQKSNEVWKWEDGSVISENMFEFLEDGKGNMNCAYFHNGKMHPTFCENKHYLMCERKAG,soluble
13,MVISMSDLTFEDVKKEISALDKLSDLEAKKYADTGGYADVIARANNLKTTQLRKFFSAIRSMEKKADSWKSIEADFYLLKPQLANARGRDLIPEGFYEVMKKMMDKVDRGDDDEKIENFRVFVRFLESIVAYHKFYNPRS,not soluble
14,MTAPRKTRTEVITTVLNLERTLAQTVLGINDENLRVLDNQIDCDIHVRGTHVELTGPAHEVSRASKIFEELQAIARRGHVISPETVKNVISMINVETPQTVSEILTGDILARRGKVIRPKTLGQKHYVDAIDTNTIVFGLGPAGSGKTYLAMAKAVQALQSKQVSRIILTRPAVEAGEKLGFLPGTLNEKIDPYLRPLHDALRDMVEPEVIPKLMEAGIVEVAPLAYMRGRTLNDAFVILDEAQNTTPAQMKMFLTRLGFGSKMVVTGDITQVDLPGGQKSGLRLVRHILRGVDDVHFSELTSSDVVRHQLVGHIVDAYEDYEEREARELKRKRQETRP,not soluble
15,MCMYEADVRINGTLIWYYFICKREVWLISHGITADQEDENIEIGRFIHENAYSREKKEIDFDNFKVDVADSIDGKIIVQEVKKSSKFKKSARMQLLFYIYEIKKSGIDARGILLFPEERKREEVVLDEASQKELDSVIKDIFKIVNLEKPPIPEKCKYCRNCAYSELCWA,not soluble
16,MAHHHHHHMEKYKNILEKLEWYKNKSSEKYEFGIYEIDKREVFITTKYSYGFVNNKPLLPGHILLTTLKKKKHYNDLDIEEIIDINLLCNFMCYIMGNLFNTTDFSIAIQDGKEAGQTVDHVHIHIIPRKINDYKNNDNIYNDMNKINLGYGKNIICNSCNNTINVCSQNEIERNFKLEEFNTSIRSIEQMEEEANLIKSYINEKFSS,not soluble
17,GGDKQEAPITKNSIAGGQSESANSTMPGIVVPIISAETSHAAGNADPDVPDTAPLAIDTALESAWQPAKGDTLVLNFAQPYVISRVIVDSPTKDMTLEVRAGDTVVGTGTVTKSRTKITVTPAPAVTSLSIRVVGVPDGVSPEINDVKLVAKI,not soluble
